For the experiment, the target named is importin-α (PBMCs) (human (endogenous in PBMCs)) (UniProt P52292). Briefly: co-IP; PBMCs from seven steroid-naive asthma patients after inhaled FP (100 or 500 µg via a spacer) or placebo in vivo, blood taken at 1 and 2 h; densitometry of blots.

The substance “phospho-GATA-3 (PBMCs) (from UniProt P23771 1-443) (natural protein)” registered a GATA-3–importin-α association (densitometry, median), 2 h after inhaled FP 500 µg of 879 and a GATA-3–importin-α association (densitometry, median), reference before the decrease of 13500.

The record behind these values is publication PMC2674207.
